System: Plant OsNAM12.1 (SUMOylated, from rice root protein extract; genotype of the sample not stated)

deSUMOylating protease Ulp1
deSUMOylation by protease treatment, immunoblot: putative di-SUMOylated (-53 kD; 29+12+12) rather than the putative mono-SUMOylated (-41 kD; 29+12) OsNAM12.1 was preferentially deSUMOylated
